The source of these data is PMC11561172 (Nature Communications, 2024).

This data set concerns the molecule itself. Put plainly: cryo-EM structure.

B1: RNA polymerase α subunit (natural protein, Spinacia oleracea (spinach), UniProt P06505 1-335, looked up)
chain: MVREKIRVSTQTLQWKCVESRTDSKCLHYGRFILSPLMKGQADTIGIAMRRALLGEIEGTCITRAKSEKIPHEYSTILGIQESVHEILMNLKEIVLRSNLYGTCEASICVRGPRGVTAQDIILPPYVEIVDNTQHIASLTEPIDLCIGLQLERNRGYHIKAPNNFQDGSFPIDALFMPVRNVNHSIHSYGNGNEKQEILFLEIWTNGSLTPKEALYEASRNLIDLLIPFLHAEENVNLEDNQHKVSLPLFTFHNRLAEIRKNKKKIALKFIFIDQLELPPRIYNCLKKSNIHTLLDLLNNSQEDLIKMKHFRIEDVKQIFGTLEKHFVIDLKNKR
Take B1: the binding result was “binds”.
